To fix the notation:
B1: OAS1 (parent)
chain: LTVYAWERGSMKTHFNTAQGFRTV
B2: RSPH3 (parent)
chain: LELQRQREARKRALARKQAQEQLR
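Also: lentivirally expressed fusions sorted by FACS into six bins by GFP to DsRed ratio, PSI derived from sequencing read proportions per bin multiplied by bin number.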

The variants in the first data set derive from B1. Put plainly: protein stability index of a GFP-peptide fusion (GPS, HEK-293T) (PSI 1-6); higher = more stable. The conditions noted are these: c terminus: a fixed tail appended.
For ETVYAWERGSMKTHFNTAQGFRTV [L1E], the protein stability index amounted to 2.17. Still for that read-out and setting: as for DTVYAWERGSMKTHFNTAQGFRTV [L1D], the figure is 2.26; as for GTVYAWERGSMKTHFNTAQGFRTV [L1G], 2.31.

Turning to ATVYAWERGSMKTHFNTAQGFRTV [L1A], the protein stability index amounted to 2.32. Same read-out and setting: then FTVYAWERGSMKTHFNTAQGFRTV [L1F], with 2.48; and CTVYAWERGSMKTHFNTAQGFRTV [L1C], with 1.74.

In the next data set the parent is B2. The description is as above. The conditions noted are these: c terminus: a fixed tail appended.
For LELQRQREARKRALARKQAQEQLF [R24F], the protein stability index was determined as 3.77. On the same count and under the same terms, as for LELQRQREARKRALARKQAQEQLN [R24N], the figure is 4.23; as for LELQRQREARKRALARKQAQEQLP [R24P], 3.86. Still for that read-out and setting: then LELQRQREHRKRALARKQAQEQLR [A9H], with 4.07; and LELQRQREIRKRALARKQAQEQLR [A9I], with 3.39; and LELQRQREGRKRALARKQAQEQLR [A9G], with 4.04. On the same count and under the same terms, then LELQRQREVRKRALARKQAQEQLR [A9V], with 3.71. Turning to LELQRQREYRKRALARKQAQEQLR [A9Y], the protein stability index was 3.71.

As to LELQRQRECRKRALARKQAQEQLR [A9C], the protein stability index is 4.05. Turning to LELQRQREARKRALARKQAQEGLR [Q22G], the protein stability index was 4.22. The same measure, in the same setting: then LELQRQREARKRALARKQAQEVLR [Q22V], with 3.37. Same read-out and setting: then LELQRQREARKRALARKQAQEDLR [Q22D], with 4.29. With LELQRQREARKRALARKQAQENLR [Q22N], the protein stability index was found to be 4.14. LELQRQREARKRALARKQAQEILR [Q22I]: the protein stability index came to 2.65. On the same count and under the same terms, as for LELQRQREARKRALARKQAQETLR [Q22T], the figure is 3.16. Same read-out and setting: as for LELQRQREARKRALARKQAQECLR [Q22C], the figure is 3.11; as for LELQRQREARKRALARKQAQEWLR [Q22W], 2.8. For LELQGQREARKRALARKQAQEQLR [R5G], the protein stability index is 4.34. On the same count and under the same terms, as for LELQCQREARKRALARKQAQEQLR [R5C], the figure is 4.09. On the same count and under the same terms, then LELQKQREARKRALARKQAQEQLR [R5K], with 4.25. Same read-out and setting: then LELQSQREARKRALARKQAQEQLR [R5S], with 4.16.

With LELQDQREARKRALARKQAQEQLR [R5D], the protein stability index turned out to be 4.27. In the case of LELQMQREARKRALARKQAQEQLR [R5M], the protein stability index was 4.03.

On to LELQFQREARKRALARKQAQEQLR [R5F], for which the protein stability index is 3.91. On the same count and under the same terms, as for LELQPQREARKRALARKQAQEQLR [R5P], the figure is 3.89; as for LELQWQREARKRALARKQAQEQLR [R5W], 4.02; as for LELQRQREARKRALARNQAQEQLR [K17N], 4.45. Still for that read-out and setting: then LELQRQREARKRALARTQAQEQLR [K17T], with 4.43; and LELQRQREARKRALAREQAQEQLR [K17E], with 4.69.

Take LELQRQREARKRALARSQAQEQLR [K17S]: the protein stability index came out at 4.21. As for LELQRQREARKRALARCQAQEQLR [K17C], the protein stability index came to 3.77. The same measure, in the same setting: then LELQRQREARKRALARRQAQEQLR [K17R], with 4.38.

For LELQRQREARKRALARAQAQEQLR [K17A], the protein stability index turned out to be 4.1. Same read-out and setting: then LELQRQREARKRDLARKQAQEQLR [A13D], with 4.07; and LELQRQREARKRCLARKQAQEQLR [A13C], with 3.24.

Take LELQRQREARKRKLARKQAQEQLR [A13K]: the protein stability index was found to be 3.36.

For LELQRQREARKRPLARKQAQEQLR [A13P], the protein stability index came to 4.14. The same measure, in the same setting: then LELQRQREARKRGLARKQAQEQLR [A13G], with 3.33. Consider LELQRQREARKRELARKQAQEQLR [A13E], for which the protein stability index amounted to 4.5. With LELQRQREARKRQLARKQAQEQLR [A13Q], the protein stability index worked out at 4.45. For the variant LELQRQREARKRFLARKQAQEQLR [A13F], the protein stability index turned out to be 3.39. The same measure, in the same setting: as for LELCRQREARKRALARKQAQEQLR [Q4C], the figure is 3.52; as for LELERQREARKRALARKQAQEQLR [Q4E], 4.3; as for LELSRQREARKRALARKQAQEQLR [Q4S], 4.27. Same read-out and setting: as for LELFRQREARKRALARKQAQEQLR [Q4F], the figure is 3.12; as for LELIRQREARKRALARKQAQEQLR [Q4I], 2.95. On the same count and under the same terms, as for LELVRQREARKRALARKQAQEQLR [Q4V], the figure is 3.43. For LELDRQREARKRALARKQAQEQLR [Q4D], the protein stability index amounted to 3.96. On the same count and under the same terms, as for LELTRQREARKRALARKQAQEQLR [Q4T], the figure is 4.06. On the same count and under the same terms, as for LELYRQREARKRALARKQAQEQLR [Q4Y], the figure is 3.03; as for LELMRQREARKRALARKQAQEQLR [Q4M], 2.32; as for LELQRQREACKRALARKQAQEQLR [R10C], 3.43.

In the case of LELQRQREAYKRALARKQAQEQLR [R10Y], the protein stability index was 3.17. Still for that read-out and setting: then LELQRQREAFKRALARKQAQEQLR [R10F], with 3.52; and LELQRQREAHKRALARKQAQEQLR [R10H], with 3.79.

On to LELQRQREAWKRALARKQAQEQLR [R10W], for which the protein stability index stood at 3.53. The same measure, in the same setting: as for LELQRQREAVKRALARKQAQEQLR [R10V], the figure is 3.38; as for LELQRQREAKKRALARKQAQEQLR [R10K], 3.07. In the case of LELQRQREANKRALARKQAQEQLR [R10N], the protein stability index turned out to be 4.28.

As to LELQRQREALKRALARKQAQEQLR [R10L], the protein stability index turned out to be 3.62. Still for that read-out and setting: then LELQRQREAAKRALARKQAQEQLR [R10A], with 4.57; and LELQRKREARKRALARKQAQEQLR [Q6K], with 4.63. On the same count and under the same terms, as for LELQRCREARKRALARKQAQEQLR [Q6C], the figure is 3.17; as for LELQRFREARKRALARKQAQEQLR [Q6F], 3.35; as for LELQRIREARKRALARKQAQEQLR [Q6I], 2.98. The same measure, in the same setting: then LELQRMREARKRALARKQAQEQLR [Q6M], with 2.92; and LELQRWREARKRALARKQAQEQLR [Q6W], with 4.26; and LELQRTREARKRALARKQAQEQLR [Q6T], with 3.87. Regarding LELQRAREARKRALARKQAQEQLR [Q6A], the protein stability index was 4.14. Same read-out and setting: then LELQRRREARKRALARKQAQEQLR [Q6R], with 3.41. Consider LELQRHREARKRALARKQAQEQLR [Q6H], for which the protein stability index was 2.96. On the same count and under the same terms, then LELQRNREARKRALARKQAQEQLR [Q6N], with 3.73; and LELQRQREARKRALARKQTQEQLR [A19T], with 4; and LELQRQREARKRALARKQEQEQLR [A19E], with 3.28. On the same count and under the same terms, as for LELQRQREARKRALARKQQQEQLR [A19Q], the figure is 4.54; as for LELQRQREARKRALARKQGQEQLR [A19G], 3.53. With LELQRQREARKRALARKQPQEQLR [A19P], the protein stability index was 3.72.

For the variant LELQRQREARKRALARKQNQEQLR [A19N], the protein stability index was 4.08. With LELQRQREARKRALARKQKQEQLR [A19K], the protein stability index is 4.08. The same measure, in the same setting: then LELQRQREARKRALARKQDQEQLR [A19D], with 4.37. The same measure, in the same setting: then LELQRQREARKRALARKQLQEQLR [A19L], with 3.09; and LELQRQREARKRALARKQHQEQLR [A19H], with 4.33.

LELQRQREARKRALARKQAWEQLR [Q20W]: the protein stability index was found to be 2.04. Still for that read-out and setting: then LELQRQREARKRALARKQAFEQLR [Q20F], with 2.02. On to LELQRQREARKRALARKQAIEQLR [Q20I], for which the protein stability index was 3.47. On the same count and under the same terms, as for LCLQRQREARKRALARKQAQEQLR [E2C], the figure is 3.13. The same measure, in the same setting: then LHLQRQREARKRALARKQAQEQLR [E2H], with 3; and LKLQRQREARKRALARKQAQEQLR [E2K], with 4.11.

Source of the values: the supplement of paper PMC10567573.
